# Assays:
# [1] = system: Fer (mouse); test: phosphorylation enrichment, bacterial display (enrichment ratio); higher = better substrate or ligand; peptides without Tyr show the background
# [2] = system: c-Abl (mouse); test: as above
# [3] = target: FGFR1 (UniProt P11362); test: as above
# [4] = target: EPHB1 (UniProt P54762); test: as above
# [5] = system: c-Src; test: as above
# [6] = target: Hck (UniProt P08631); test: as above
# [7] = target: Fyn (UniProt P06241); test: as above
# [8] = target: FGFR3 (UniProt P22607); test: as above
# [9] = system: AncSZ; test: as above
# [10] = target: EPHB2 (UniProt P29323); test: as above
# [11] = target: Jak2 (UniProt O60674); test: as above
# [12] = target: MERTK (UniProt Q12866); test: as above
# [13] = target: Fes (UniProt P07332); test: as above
# [14] = target: SHP2-C SH2; test: SH2 binding enrichment of the phosphorylated peptide, bacterial display (enrichment ratio); higher = better substrate or ligand; peptides without Tyr show the background
# [15] = target: c-Src SH2; test: as above
# [16] = target: Grb2 SH2 (UniProt P62993); test: as above
# 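Wherever SH2 binding enrichment of the phosphorylated peptide, bacterial display is given: peptide library displayed on the E. coli surface as eCPX fusions, selected cells deep-sequenced, score is each peptide's frequency after selection divided by its frequency in the input.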
# 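Wherever phosphorylation enrichment, bacterial display is given: 11-residue human phosphosite peptides and single-mutation variants displayed on the E. coli surface, counted by deep sequencing, each peptide's frequency after selection divided by its frequency in the unselected input library; frequency after pTyr selection over input frequency; kinase dosed for 20-30% of maximal phosphorylation in three min.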
# Chain of FGFR1 (P11362 whole entry, looked up): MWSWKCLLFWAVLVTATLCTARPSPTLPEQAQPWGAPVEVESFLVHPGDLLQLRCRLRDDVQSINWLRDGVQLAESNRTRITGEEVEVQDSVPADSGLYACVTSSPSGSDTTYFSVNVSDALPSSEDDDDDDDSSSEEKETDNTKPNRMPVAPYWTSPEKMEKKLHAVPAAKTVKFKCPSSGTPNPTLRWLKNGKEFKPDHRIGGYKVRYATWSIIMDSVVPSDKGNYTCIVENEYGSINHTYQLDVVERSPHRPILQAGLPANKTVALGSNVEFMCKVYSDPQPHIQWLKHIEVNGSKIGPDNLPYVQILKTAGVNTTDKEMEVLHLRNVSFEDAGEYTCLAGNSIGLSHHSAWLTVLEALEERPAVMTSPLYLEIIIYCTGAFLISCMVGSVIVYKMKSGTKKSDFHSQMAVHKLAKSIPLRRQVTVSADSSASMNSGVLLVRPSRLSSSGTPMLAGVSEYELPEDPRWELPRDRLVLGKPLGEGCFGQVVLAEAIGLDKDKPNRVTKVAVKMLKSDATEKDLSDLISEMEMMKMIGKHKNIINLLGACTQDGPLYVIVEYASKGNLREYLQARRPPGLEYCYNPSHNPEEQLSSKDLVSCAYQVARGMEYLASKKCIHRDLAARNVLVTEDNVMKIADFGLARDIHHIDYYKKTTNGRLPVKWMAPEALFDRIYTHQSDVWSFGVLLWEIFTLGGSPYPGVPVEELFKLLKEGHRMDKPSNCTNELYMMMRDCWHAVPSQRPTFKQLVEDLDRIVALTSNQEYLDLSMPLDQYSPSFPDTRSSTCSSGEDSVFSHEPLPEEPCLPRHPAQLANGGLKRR
# Chain of Fes (P07332 whole entry, looked up): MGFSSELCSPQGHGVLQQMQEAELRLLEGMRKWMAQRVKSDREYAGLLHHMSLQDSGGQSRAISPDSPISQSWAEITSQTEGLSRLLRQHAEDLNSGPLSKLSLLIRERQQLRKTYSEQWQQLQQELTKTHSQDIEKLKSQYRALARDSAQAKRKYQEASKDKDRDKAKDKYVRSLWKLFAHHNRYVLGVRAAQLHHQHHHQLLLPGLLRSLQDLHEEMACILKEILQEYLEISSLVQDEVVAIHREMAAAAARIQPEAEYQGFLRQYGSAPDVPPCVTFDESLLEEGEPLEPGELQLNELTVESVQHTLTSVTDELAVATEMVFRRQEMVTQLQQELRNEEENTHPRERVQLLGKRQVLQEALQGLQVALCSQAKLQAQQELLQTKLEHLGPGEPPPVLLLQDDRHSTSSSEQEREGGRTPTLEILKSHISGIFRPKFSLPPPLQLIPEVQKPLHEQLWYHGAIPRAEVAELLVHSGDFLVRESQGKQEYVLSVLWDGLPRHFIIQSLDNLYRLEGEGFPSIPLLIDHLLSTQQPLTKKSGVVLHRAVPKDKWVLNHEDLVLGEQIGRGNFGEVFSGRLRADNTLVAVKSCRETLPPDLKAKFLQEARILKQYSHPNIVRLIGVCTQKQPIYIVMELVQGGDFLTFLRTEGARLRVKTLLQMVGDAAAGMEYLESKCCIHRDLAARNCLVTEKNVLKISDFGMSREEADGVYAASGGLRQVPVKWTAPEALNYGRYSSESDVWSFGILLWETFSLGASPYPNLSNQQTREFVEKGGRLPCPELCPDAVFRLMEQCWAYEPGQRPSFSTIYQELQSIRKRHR
# Chain of Fyn (P06241 whole entry, looked up): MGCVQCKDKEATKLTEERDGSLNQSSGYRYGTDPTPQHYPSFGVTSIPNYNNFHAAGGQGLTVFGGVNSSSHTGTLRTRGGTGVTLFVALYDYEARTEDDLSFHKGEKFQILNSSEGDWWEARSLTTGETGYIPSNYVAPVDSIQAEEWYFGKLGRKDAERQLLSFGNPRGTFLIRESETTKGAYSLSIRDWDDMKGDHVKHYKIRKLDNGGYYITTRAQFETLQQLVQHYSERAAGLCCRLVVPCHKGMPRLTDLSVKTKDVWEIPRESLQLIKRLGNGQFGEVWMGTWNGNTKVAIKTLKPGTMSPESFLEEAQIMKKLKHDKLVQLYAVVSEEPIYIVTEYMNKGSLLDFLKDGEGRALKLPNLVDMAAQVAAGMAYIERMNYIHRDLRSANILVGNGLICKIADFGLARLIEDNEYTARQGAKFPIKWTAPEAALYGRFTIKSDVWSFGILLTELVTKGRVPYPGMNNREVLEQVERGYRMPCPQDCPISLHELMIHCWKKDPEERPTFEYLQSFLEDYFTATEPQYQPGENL
# Chain of Jak2 (O60674 whole entry, looked up): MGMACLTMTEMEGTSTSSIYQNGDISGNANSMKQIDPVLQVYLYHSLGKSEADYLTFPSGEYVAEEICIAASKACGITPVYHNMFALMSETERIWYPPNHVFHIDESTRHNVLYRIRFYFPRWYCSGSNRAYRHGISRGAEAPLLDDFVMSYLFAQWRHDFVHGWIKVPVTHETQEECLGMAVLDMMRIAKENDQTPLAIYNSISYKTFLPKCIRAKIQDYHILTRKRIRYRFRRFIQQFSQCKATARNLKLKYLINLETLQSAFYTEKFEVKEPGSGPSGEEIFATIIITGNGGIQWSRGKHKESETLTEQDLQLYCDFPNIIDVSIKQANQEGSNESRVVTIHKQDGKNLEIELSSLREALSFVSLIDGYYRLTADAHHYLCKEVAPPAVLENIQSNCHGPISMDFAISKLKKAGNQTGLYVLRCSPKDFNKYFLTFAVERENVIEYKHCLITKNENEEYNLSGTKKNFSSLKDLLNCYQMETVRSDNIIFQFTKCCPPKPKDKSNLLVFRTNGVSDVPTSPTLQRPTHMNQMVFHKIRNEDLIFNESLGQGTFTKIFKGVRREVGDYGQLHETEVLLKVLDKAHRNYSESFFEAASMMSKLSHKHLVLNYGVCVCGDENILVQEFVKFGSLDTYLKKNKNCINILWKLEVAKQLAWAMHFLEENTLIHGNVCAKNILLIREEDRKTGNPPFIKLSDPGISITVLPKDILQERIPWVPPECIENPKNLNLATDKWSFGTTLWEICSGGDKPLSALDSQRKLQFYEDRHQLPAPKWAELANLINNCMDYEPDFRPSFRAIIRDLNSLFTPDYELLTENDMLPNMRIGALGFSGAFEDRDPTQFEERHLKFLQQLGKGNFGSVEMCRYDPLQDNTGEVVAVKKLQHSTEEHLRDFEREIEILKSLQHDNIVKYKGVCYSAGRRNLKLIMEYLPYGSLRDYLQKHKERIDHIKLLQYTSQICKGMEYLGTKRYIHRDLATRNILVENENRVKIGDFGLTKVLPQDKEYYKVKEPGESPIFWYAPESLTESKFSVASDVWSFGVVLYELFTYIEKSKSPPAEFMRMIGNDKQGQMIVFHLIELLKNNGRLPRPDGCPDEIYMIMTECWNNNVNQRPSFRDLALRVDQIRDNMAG
# Chain of EPHB1 (P54762 whole entry, looked up): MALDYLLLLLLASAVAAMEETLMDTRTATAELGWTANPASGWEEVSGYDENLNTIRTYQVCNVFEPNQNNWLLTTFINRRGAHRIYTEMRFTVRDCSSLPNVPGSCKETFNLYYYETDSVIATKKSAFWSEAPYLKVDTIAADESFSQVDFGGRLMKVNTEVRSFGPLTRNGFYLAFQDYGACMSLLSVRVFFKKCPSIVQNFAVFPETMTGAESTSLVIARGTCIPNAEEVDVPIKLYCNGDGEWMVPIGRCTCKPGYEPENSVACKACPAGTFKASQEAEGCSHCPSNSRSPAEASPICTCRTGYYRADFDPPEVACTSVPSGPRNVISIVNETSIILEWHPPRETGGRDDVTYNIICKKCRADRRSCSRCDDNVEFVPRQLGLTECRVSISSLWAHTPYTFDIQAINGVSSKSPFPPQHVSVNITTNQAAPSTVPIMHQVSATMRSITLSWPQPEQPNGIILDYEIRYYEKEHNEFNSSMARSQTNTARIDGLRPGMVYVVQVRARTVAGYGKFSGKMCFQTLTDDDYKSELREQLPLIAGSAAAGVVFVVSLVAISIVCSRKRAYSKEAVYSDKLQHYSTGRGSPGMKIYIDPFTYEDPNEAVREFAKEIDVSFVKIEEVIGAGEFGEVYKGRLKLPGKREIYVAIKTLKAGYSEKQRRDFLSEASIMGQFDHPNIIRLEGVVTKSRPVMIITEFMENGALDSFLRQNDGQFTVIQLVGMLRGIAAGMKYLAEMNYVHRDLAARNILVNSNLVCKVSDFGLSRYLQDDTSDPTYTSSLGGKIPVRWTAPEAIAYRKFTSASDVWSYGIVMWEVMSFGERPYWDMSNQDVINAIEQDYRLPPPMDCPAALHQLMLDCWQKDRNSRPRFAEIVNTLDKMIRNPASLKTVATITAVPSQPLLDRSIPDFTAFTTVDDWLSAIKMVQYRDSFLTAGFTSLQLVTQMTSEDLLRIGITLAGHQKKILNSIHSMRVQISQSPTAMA
# Chain of Hck (P08631 whole entry, looked up): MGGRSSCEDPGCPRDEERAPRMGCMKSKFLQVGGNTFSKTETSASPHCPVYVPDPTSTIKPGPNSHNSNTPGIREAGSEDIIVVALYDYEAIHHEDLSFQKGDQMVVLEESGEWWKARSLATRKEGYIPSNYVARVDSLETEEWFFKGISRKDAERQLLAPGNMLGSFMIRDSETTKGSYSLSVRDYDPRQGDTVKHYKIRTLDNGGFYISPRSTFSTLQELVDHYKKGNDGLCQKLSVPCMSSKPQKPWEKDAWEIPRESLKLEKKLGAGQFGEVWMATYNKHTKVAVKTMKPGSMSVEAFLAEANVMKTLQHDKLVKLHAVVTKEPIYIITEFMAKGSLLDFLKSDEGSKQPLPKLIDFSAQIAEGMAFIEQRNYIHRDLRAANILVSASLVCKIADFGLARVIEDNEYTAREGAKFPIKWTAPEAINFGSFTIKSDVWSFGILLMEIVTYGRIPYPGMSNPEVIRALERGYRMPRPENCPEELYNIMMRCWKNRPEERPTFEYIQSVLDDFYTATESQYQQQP
# Chain of Grb2 SH2 (P62993 whole entry, looked up, the tested form may be a part): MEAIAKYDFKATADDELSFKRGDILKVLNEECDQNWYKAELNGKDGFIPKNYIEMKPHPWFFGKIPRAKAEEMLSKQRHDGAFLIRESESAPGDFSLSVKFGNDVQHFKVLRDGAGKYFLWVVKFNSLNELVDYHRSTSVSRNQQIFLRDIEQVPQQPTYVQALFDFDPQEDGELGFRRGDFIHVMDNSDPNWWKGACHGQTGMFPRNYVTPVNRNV
sequence,measurement,setting,value
YTNELYMMMRD [FGFR1_Y730_C725Y],phosphorylation enrichment,[1],0.982
same,phosphorylation enrichment,[2],0.766
same,phosphorylation enrichment,[3],2.52
same,phosphorylation enrichment,[4],5.42
same,phosphorylation enrichment,[5],2.18
same,phosphorylation enrichment,[6],2.85
same,phosphorylation enrichment,[7],1.4
same,phosphorylation enrichment,[8],2.27
same,phosphorylation enrichment,[9],1.68
same,phosphorylation enrichment,[10],3.13
same,phosphorylation enrichment,[11],1.35
same,phosphorylation enrichment,[12],5.02
same,phosphorylation enrichment,[13],1.35
same,SH2 binding enrichment,[14],0.645
same,SH2 binding enrichment,[15],1.63
same,SH2 binding enrichment,[16],2.09
